Article doi:10.1101/2020.03.08.831909 (2020)

Columns and labels:
[1] = biological target: OptoMB_(C450V), light-insensitive, His-tagged, purified (Avena sativa, UniProt O49003 408-543, C450V); test: BLI; dark conformation (C450V)
[2] = biological target: His6-OptoMB_(V416I_G528A_N538E) fused to an N-terminus SUMO tag, purified (Avena sativa, UniProt O49003 408-543, V416I | G528A | N538E); test: BLI; light conformation (lit-mimetic mutant)

B1: YFP-SH2, purified (fusion of yellow fluorescent protein and SH2) (domain or fragment)
chain: SLEKHSWYHGPVSRNAAEYLLSSGINGSFLVRESESSPGQRSISLRYEGRVYHYRINTASDGKLYVSSESRFNTLAELVHHHSTVADGLITTLHYPAPKRNKPTVYGVSPNY
- koff [1]: 0.00753 s⁻¹
- Kd [2]: 21.7 µM
- koff [2]: 0.0489 s⁻¹
